Measured values published in patent US20250027090.

Columns and labels:
[1] = molecular target: T1, thrombin (native human beta-thrombin) (Homo sapiens) (UniProt P00734+P00734); assay: EMSA; settings: for Kd: selection buffer, 10% glycerol, room temperature; for binding signal: 1 uM thrombin
[2] = molecular target: thrombin (native bovine alpha-thrombin) (Bos taurus) (UniProt P00735+P00735); assay: ITC; settings: L-DNA (all nucleotides)
[3] = molecular target: T1, thrombin (native human beta-thrombin) (Homo sapiens); assay: ITC; settings: L-DNA (all nucleotides); physiological buffer pH 7.4, 25 C
[4] = molecular target: T1, thrombin (native human beta-thrombin) (Homo sapiens); assay: inhibition; settings: L-DNA (all nucleotides); R0 pool, no inhibition up to 8 uM

“ACGGAACGCGTTTCAAGACTACCGTGTTTGTTCCGT [Cy5-L-9-1t aptamer]” was tested, and the Kd ([1]; L-DNA (all nucleotides)) was 21 nM.

With “ACGGAACGCGTTTCAAGACTACCGTGTTTGTTCCGT [L-9-1t aptamer]” the Kd ([2]; ~26-fold weaker than human thrombin) was 1030 nM and the Kd [3] was 39 nM.

Work on “CGGATCCAGTTACGGAACGCGTTTCAAGACTACCGTGTTTGTTCCGTTCATTCAGTAAGCTTCGG [L-9-1 aptamer]” yielded a Kd [3] of 29 nM.

With “CGGATCCAGTTACGGANNNNNNNNNNNNNNNNNNNNNNNNNNNNNNTTCATTCAGTAAGCTTCGG [R0 L-DNA library pool]” the IC50 [4] was greater than 8000 nM.

Sequence “CGGATCCAGTTACGGANNNNNNNNNNNNNNNNNNNNNNNNNNNNNNTTCATTCAGTAAGCTTCGG [R6 D-DNA pool]” has a binding signal [1] of 70 % bound.

“CGGATCCAGTTACGGANNNNNNNNNNNNNNNNNNNNNNNNNNNNNNTTCATTCAGTAAGCTTCGG [R9 L-DNA pool]” showed a binding signal ([1]; L-DNA (all nucleotides), 200 nM pool) of 70 % bound.

“CGGATCCAGTTACGGATGAACTTGTTGAAACCCAACGGGAGAATCGTTCATTCAGTAAGCTTCGG [L-9-2 aptamer]” gave a Kd [3] of 168 nM.

With “CGGATCCAGTTACGGATGAACTTGTTGAAACCCAACGGGAGCCTCGTTCATTCAGTAAGCTTCGGTGG [L-13 aptamer]” the Kd [3] was 22 nM.

With “GATGAACTTGTTGAAACCCAACGGGAGAATCGTTCATT [Cy5-L-9-2t aptamer]” the Kd ([1]; L-DNA (all nucleotides)) was 355 nM.

“GATGAACTTGTTGAAACCCAACGGGAGAATCGTTCATT [L-9-2t aptamer]” showed a Kd ([2]; ~1.7-fold weaker than human thrombin) of 426 nM and a Kd [3] of 251 nM.

With “GATGAACTTGTTGAAACCCAACGGGAGCCTCGTTCATT [Cy5-L-13t aptamer]” the Kd ([1]; L-DNA (all nucleotides)) was 28 nM.

“GATGAACTTGTTGAAACCCAACGGGAGCCTCGTTCATT [L-13t aptamer]” showed a Kd [3] of 34 nM.
